Measured values reported in paper PMC7065143, “Substrate Flexibility of the Flavin‐Dependent Dihydropyrrole Oxidases PigB and HapB Involved in Antibiotic Prodigiosin Biosynthesis” (Chembiochem, 2019).

Substrate: CCCCCC1CCN=C1C
Assay: purified protein
Assay type: biochemical, Hahella chejuensis
Conditions: MES pH 6.0 10 mM, 30 °C, air, DMSO, racemic substrate 0.1–1.4 mM, HapB 0.457 μM

B1: HapB (Hahella chejuensis KCTC 2396) (protein)
chain: MESQDNSQYAGEAPVFPSKDFECNQGSFDDTDTSPPQHAGDYDVIVVGGGISGLSSAWKLRERKLLVLDQRDRFGGAARLEQRDGLLYASGASCFQLPTGHNEVSHLLQDLDLWNQWRSTAEDTLVIFDTKRLMKGLGEVTAALLKQPKELLKPAVWGLTANLLYSAMSGKPFISAEKKLGDPMFADLFQYLNRFTPDSGKHPAMPWREGCDWTREEMELFDSVSLHDLLFDPATRRSLPQDLIPRHRFGSLVKDAVETTLRVECLAIKDVSAYVGLHFLVGYLYRPLVTFPGGNGYIADRIRQRLMSTGSCKFKAGSRAYSITQNQEGVKVCFQQEGKNYYANANALIWAGAKHAAVSVVDGLPQQQKAAIAEIEHRDYAIAGVYLKKAALANYFGGYVIEGDIGGRYPNSWCRSGVCLAANWKDPSYAGGLGVLTLLKPISGAADQGKLGKADFRNLQQTAYGEVRDMLVATGHSPDLIEDIKLWRWPHGLVVSKVGQMKHDVFVNASQPVGAVFFANQDSVGMGNMESAIWAGCHAAEQVRRHFRSHSSVVSHIGDYAATQS
notes: full-length, N-terminal His6 tag (pQE80-L, pHDB1), E. coli BL21, Ni-NTA; soluble, lacks the N-terminal transmembrane domain of PigB
- Km: 220 ± 80 µM
- kcat: 0.228 ± 0.02 s⁻¹
